± gives the standard deviation of the averaged measurements.
Test system: Saccharomyces cerevisiae
Test: protein stability index of tFT-peptide fusion (C-terminal peptide) (PSI (0-1 scale)); higher = more stable (slower turnover)
Conditions: genetic background: wild type; temperature: 30 C
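Also: PSI is a weighted mean of sequencing reads over stability bins, variants kept only with over 10 reads, mCherry proximal and sfGFP distal, peptide attached via GGGS linker.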

Row | Sequence | protein stability index
1 | QLDPLRPASEFA | 0.602 ± 0.043
2 | CLLCLPPPRSLS | 0.69 ± 0.034
3 | PKKNQSKQRKKT | 0.708 ± 0.05
4 | LGFLRRERLVPS | 0.697 ± 0.057
5 | RSRSIPTTLCLP | 0.655 ± 0.026
6 | VQDALPLLVPPF | 0.762 ± 0.021
7 | GPPSVSPPFSPS | 0.7829 ± 0.0016
8 | LLLTLVFSFLSC | 0.531 ± 0.0088
9 | PPPPPPQTPRPR | 0.683 ± 0.061
10 | VSMPIVPWPLLQ | 0.54 ± 0.016
11 | TLQLFPRIPSFQ | 0.707 ± 0.0019
12 | VRCGCDFRVSRC | 0.717 ± 0.062
13 | KRRKREEKKSMT | 0.742 ± 0.097
14 | LPPRPSPPRRPP | 0.666 ± 0.016
15 | GAARTPGRARTL | 0.685 ± 0.049
16 | PPPPPPPFCLAP | 0.718 ± 0.0079
17 | GGCVGVLGGGGF | 0.659 ± 0.016
18 | PPPLCSIPPILL | 0.705 ± 0.034
19 | VRQCSSGFRGAF | 0.674 ± 0.07
20 | EEMMEWKKREEK | 0.6596 ± 0.0009
21 | LFSLFLRSPLTS | 0.664 ± 0.035
22 | GAVVLAGWGVLK | 0.718 ± 0.028
23 | PASPPLRALSSL | 0.81 ± 0.075
24 | PLSTGLPFPRSP | 0.718 ± 0.028
25 | VGNPHKRGWRAR | 0.60903 ± 0.00027
26 | SPFSPLPSPRPR | 0.723 ± 0.018

Row | Sequence | protein stability index
27 | PCDWEGCVAMNV | 0.649 ± 0.055
28 | LRLFCVLARSVV | 0.528 ± 0.018
29 | CGRPPPLFAFIP | 0.701 ± 0.037
30 | WCECGVWVGLWG | 0.732 ± 0.059
31 | VDKLVRCISVSI | 0.5428 ± 0.0013
32 | FCGACFRGDVLV | 0.67 ± 0.017
33 | DSVYYVYRSTRV | 0.679 ± 0.044
34 | PVPLLPLSFSLL | 0.736 ± 0.064
35 | LVFSTLGSCFDG | 0.685 ± 0.0099
36 | KNKRKTNLRKKT | 0.6961 ± 0.00039
37 | RLGARGGSRGRP | 0.736 ± 0.012
38 | RKSERIKNKNGR | 0.715 ± 0.037
39 | WSISKSTWGPIG | 0.673 ± 0.023
40 | LGFVADLFVWSV | 0.673 ± 0.069
41 | VLCVDQVEVSFV | 0.678 ± 0.03
42 | DHRELPRSRIGT | 0.673 ± 0.015
43 | RLVFDTGPPFIN | 0.657 ± 0.042
44 | GEKKTNHEPGAS | 0.759 ± 0.06
45 | LDLYRYLQDLGC | 0.731 ± 0.018
46 | LWVGGVGRVRGV | 0.69144 ± 0.00047
47 | GVPVVCGPPPFL | 0.748 ± 0.091
48 | RLLRDFQSVGGD | 0.6498 ± 0.0014
49 | FLLPPPPRASSF | 0.736 ± 0.066
50 | GGVAAVGGPWGN | 0.75 ± 0.052
51 | VGGGGLGVEAWG | 0.613 ± 0.059
52 | CEITISQEQSAS | 0.624 ± 0.022

Row | Sequence | protein stability index
53 | LGSTPAVKPPCL | 0.688 ± 0.019
54 | TYKKAKIRKKYI | 0.6237 ± 0.0045
55 | RRESQRRYRRML | 0.714 ± 0.059
56 | LIGRPLPRTFMH | 0.766 ± 0.074
57 | CYGVGTVGLRRG | 0.712 ± 0.048
58 | PSPTIPSPPPPP | 0.615 ± 0.011
59 | EKRKNKKYKNKM | 0.698 ± 0.049
60 | HSINNVITNNTE | 0.678 ± 0.017
61 | VLLSTLHLRGFG | 0.537 ± 0.04
62 | PPSRPSASFALL | 0.743 ± 0.026
63 | LKTNECIPVTEK | 0.609 ± 0.029
64 | RFLLNPPLRCPP | 0.747 ± 0.041
65 | VFPLSLLLTSFL | 0.591 ± 0.047
66 | SWTCSPLKSFHS | 0.734 ± 0.049
67 | SSLPDSPLNRER | 0.693 ± 0.038
68 | GRTGETGRIGRG | 0.6512 ± 0.0023
69 | GYSPLHPILLGL | 0.577 ± 0.013
70 | LGRTFEEEKYAY | 0.767 ± 0.13
71 | PTTLTTPTPPHR | 0.7161 ± 0.0022
72 | RPPPLPPRPSPP | 0.752 ± 0.12
73 | LEAINRKGIWQE | 0.639 ± 0.083
74 | SRAVTDRGWSPR | 0.68 ± 0.028
75 | HGPGGFRAGTGE | 0.724 ± 0.027
76 | LVLVRPGSVSPE | 0.731 ± 0.018
77 | GPSIRWWGGGRR | 0.731 ± 0.049
78 | PFHPSPLPAPHF | 0.638 ± 0.036

Row | Sequence | protein stability index
79 | LFGLLSSPLCVD | 0.63 ± 0.042
80 | KKICLEWMLLQS | 0.7011 ± 0.0067
81 | SCGCCGVLFQGV | 0.846 ± 0.2
82 | QGGGGGGRSGWR | 0.6854 ± 0.0061
83 | GACCRHERIREE | 0.761 ± 0.084
84 | RGPGMVRAFAEA | 0.679 ± 0.011
85 | HSSLHLTRALCL | 0.677 ± 0.043
86 | VGVVLNEPYSQE | 0.702 ± 0.011
87 | GPPRTRRRSARG | 0.668 ± 0.0068
88 | RATLGVSGRCWV | 0.6802 ± 0.001
89 | FGAGVWVGRVGG | 0.649 ± 0.048
90 | IVVRAGGCSVGW | 0.695 ± 0.081
91 | LFPRSVPIAINL | 0.6259 ± 0.0045
92 | SPPPPTSPRPLT | 0.709 ± 0.0085
93 | GTDEWKRKYNTP | 0.695 ± 0.045
94 | LSFPSPSLCRPL | 0.694 ± 0.1
95 | ECGLRAAKPVWI | 0.702 ± 0.063
96 | ISVSGLVVSVGP | 0.649 ± 0.011
97 | PPASPSPSLLSP | 0.6491 ± 0.0025
98 | RLPPRPPPRPPT | 0.6514 ± 0.006
99 | VVARLERAGLGG | 0.766 ± 0.094
100 | LSFFLSSALLHP | 0.7 ± 0.028
101 | VRFLWWGLFWGW | 0.499 ± 0.016
102 | FGSPVGSAGSCF | 0.647 ± 0.095
103 | QPPLPTRLNHRQ | 0.651 ± 0.045
104 | VMVYLRSPLLDR | 0.748 ± 0.059

Row | Sequence | protein stability index
105 | VASWNSDKTKND | 0.752 ± 0.12
106 | PSLLPLLPLPPP | 0.685 ± 0.038
107 | LRFRPLSGRAFF | 0.664 ± 0.051
108 | RRNGVVGRLGWV | 0.7 ± 0.051
109 | LPLFTIVPPFFF | 0.59 ± 0.011
110 | FISEYPQCAALG | 0.738 ± 0.078
111 | IGTGHPRTGLSR | 0.682 ± 0.031
112 | LYYSEKRIKNVN | 0.643 ± 0.077
113 | AGRFSPLPPHFI | 0.707 ± 0.035
114 | SPITSLSGGTKR | 0.631 ± 0.064
115 | VGRGEEAHTPRR | 0.678 ± 0.013
116 | VTPVQFMFRLHF | 0.646 ± 0.054
117 | KKKEKKRGRRKV | 0.688 ± 0.073
118 | GYETTQSGFLSS | 0.5887 ± 0.0022
119 | ENQGQKKKKKKR | 0.733 ± 0.12
120 | QVWLEKDPQETA | 0.691 ± 0.016
121 | DGVRCCTKWTCA | 0.679 ± 0.013
122 | GVSWVGGRVFGG | 0.6964 ± 0.0051
123 | HPPSPPSRVSPS | 0.594 ± 0.032
124 | ALPFPASTSPLS | 0.701 ± 0.048
125 | SYGWSQGPLSCW | 0.767 ± 0.01
126 | GTSVGVRRKGVK | 0.708 ± 0.033
127 | VRGRREGVADER | 0.712 ± 0.084
128 | PSPSPPPPLSPP | 0.698 ± 0.045
129 | AVSRSLTGVRFL | 0.697 ± 0.025
130 | RFVCVSVCPVRV | 0.487 ± 0.065

Row | Sequence | protein stability index
131 | MDHSGYWDISCG | 0.801 ± 0.099
132 | SSLPLPRVPPPP | 0.717 ± 0.032
133 | ERGKRKASHRRR | 0.683 ± 0.041
134 | PPPDSSLPLGSP | 0.688 ± 0.0081
135 | VSAPRPPPAPSP | 0.786 ± 0.1
136 | STSYLKLKYSIY | 0.498 ± 0.038
137 | SRASATYLFNLH | 0.622 ± 0.012
138 | PPPAPRPPLSLP | 0.621 ± 0.017
139 | GPEGSDMIDPWK | 0.666 ± 0.13
140 | KKTKKKKQTKRK | 0.677 ± 0.038
141 | VSFRRFKFKVKM | 0.661 ± 0.061
142 | PDPPPTRPFPAP | 0.672 ± 0.045
143 | VGVWWWWCFGSW | 0.595 ± 0.069
144 | AVVYIRVEVPGA | 0.498 ± 0.017
145 | LRFLPHIPSGLS | 0.716 ± 0.019
146 | PVFPPTPLSPRP | 0.571 ± 0.077
147 | RMNSCVLLDGFA | 0.687 ± 0.03
148 | VSEVDVRGKGIR | 0.783 ± 0.068
149 | GRGCLGSILVFL | 0.633 ± 0.047
150 | LRTKRGKREEYD | 0.73 ± 0.015
151 | GVSAGGAGLGGS | 0.773 ± 0.0031
152 | GVVRTSWGEALR | 0.7065 ± 0.0061
153 | PPLSLRPDLPVF | 0.649 ± 0.0098
154 | HDGPYPALLATK | 0.606 ± 0.069
155 | PPSPPSLRSSPP | 0.744 ± 0.13
156 | VAGSQYTAGGDV | 0.635 ± 0.044

Row | Sequence | protein stability index
157 | KKKKMKKNKERK | 0.708 ± 0.049
158 | PLSPTTRTRSQS | 0.642 ± 0.067
159 | GEKEARRKKVSM | 0.749 ± 0.071
160 | PHSLPPPTPPHS | 0.629 ± 0.047
161 | TWRRAVSERPYP | 0.725 ± 0.1
162 | FGTKHFGGWGGV | 0.745 ± 0.015
163 | PPRTPFSLPPPA | 0.73 ± 0.054
164 | ARTSPRSPTFPP | 0.69 ± 0.066
165 | LCACRMVGFRGG | 0.538 ± 0.045
166 | SSSVPHFIFLPR | 0.656 ± 0.028
167 | PVLYPPPPFPPY | 0.747 ± 0.0095
168 | GGYDFRCPCCGV | 0.723 ± 0.025
169 | SMSSERYIKRGN | 0.702 ± 0.011
170 | TRTSRGRTLTTL | 0.583 ± 0.016
171 | RYANGVLHIGSN | 0.659 ± 0.042
172 | FSSTCLSSRFAI | 0.684 ± 0.07
173 | PTPPPQPTPHTP | 0.705 ± 0.035
174 | RALNRVWLSRRV | 0.607 ± 0.02
175 | WAARPSATGDRC | 0.664 ± 0.042
176 | PPHLPPPPSPSV | 0.6729 ± 0.0053
177 | SSPPSPPPLTLY | 0.687 ± 0.02
178 | PPSLPPLPPSPA | 0.656 ± 0.085
179 | NNSRTNDVRRRK | 0.726 ± 0.018
180 | FFCILCAHWFPL | 0.589 ± 0.086
181 | SPPSLLATVYFF | 0.7065 ± 0.0015
182 | SFMYCDLLLFGS | 0.59 ± 0.068

Row | Sequence | protein stability index
183 | FVISRPRLHSFC | 0.5663 ± 0.0032
184 | FPTPPPGPGPPP | 0.641 ± 0.03
185 | ACGTFSDSMSQL | 0.691 ± 0.11
186 | SRFIDLLFPSSP | 0.705 ± 0.0074
187 | PPPQYILPPRFP | 0.691 ± 0.017
188 | YSLQLSTVCCRL | 0.614 ± 0.019
189 | PPTHPPLPPPLL | 0.689 ± 0.07
190 | FGLVYCSGLTVS | 0.54 ± 0.0079
191 | PGSKLGPAASRG | 0.663 ± 0.071
192 | TRSAFPSFPTRS | 0.68 ± 0.02
193 | VGCEGGRRGVGG | 0.65 ± 0.059
194 | VLPVLTWWGELG | 0.733 ± 0.018
195 | GMSSWNSISFPI | 0.751 ± 0.073
196 | RNRDKKGDMILK | 0.691 ± 0.0086
197 | SLRLFIHTIFSR | 0.695 ± 0.061
198 | PHLPPQPPSPPA | 0.716 ± 0.045
199 | VCGVSWSRFPVL | 0.716 ± 0.0099
200 | WHWDGVGTLVIW | 0.605 ± 0.14
201 | LHPPLPRPPYPP | 0.66 ± 0.029
202 | ASSLHFLYLPAL | 0.709 ± 0.062

Reference: the supplement of paper PMC10724198
